B1: h26D3-HC6/LC1 (Fab, V domains shown)
VH: EVQLVQSGAEVKKPGSSVKVSCKASGYIFTDYNMDWVRQAPGQGLEWIGDINPDADTTSYNEKFKGRATLTVDKSTSTAYMELSSLRSEDTAVYYCARGGYSGSSYYHPMDYWGQGTLVTVSS
VL: DIQMTQSPSSVSASVGDRVTITCKSSQSLLASTNQKNYLAWYQQKPGKAPKLLIYWASTRESGVPSRFSGSGSGTDFTLTISSLQPEDFATYYCQQYFIYPRTFGQGTKVEIK
notes: His-tagged Fab; also called double alanine mutant of h26D3 (VH Y55A, VL Y31A)
B2: h26D3-HC3/LC5 (Fab, V domains shown)
VH: B1 VH with D35A, A55Y
VL: B1 VL with A31Y, Y97A
notes: His-tagged Fab; also called double alanine mutant of h26D3 (VH D35A, VL Y97A)
B3: h26D3-HC3/LC1 (Fab, V domains shown)
VH: B1 VH with D35A, A55Y
VL: B1 VL
notes: His-tagged Fab; also called double alanine mutant of h26D3 (VH D35A, VL Y31A)
B4: h26D3-HC8/LC5 (Fab, V domains shown)
VH: B1 VH with A55Y, Y60A
VL: B1 VL with A31Y, Y97A
notes: His-tagged Fab; also called double alanine mutant of h26D3 (VH Y60A, VL Y97A)
B5: h26D3-HC8/LC1 (Fab, V domains shown)
VH: B1 VH with A55Y, Y60A
VL: B1 VL
notes: His-tagged Fab; also called double alanine mutant of h26D3 (VH Y60A, VL Y31A)
B6: h26D3-HC6/LC5 (Fab, V domains shown)
VH: B1 VH
VL: B1 VL with A31Y, Y97A
notes: His-tagged Fab; also called double alanine mutant of h26D3 (VH Y55A, VL Y97A)
B7: h26D3-HC10/LC1 (Fab, V domains shown)
VH: B1 VH with A55Y, Y106A
VL: B1 VL
notes: His-tagged Fab; also called double alanine mutant of h26D3 (VH Y106A, VL Y31A)
B8: h26D3-HC10/LC5 (Fab, V domains shown)
VH: B1 VH with A55Y, Y106A
VL: B1 VL with A31Y, Y97A
notes: His-tagged Fab; also called double alanine mutant of h26D3 (VH Y106A, VL Y97A)
B9: h26D3 variant HC8 Fab (Fab, V domains shown)
VH: B1 VH with A55Y, Y60A
VL: B1 VL with A31Y
notes: Single-mutant His-tagged Fab; also called Y60A
B10: h26D3 variant HC11 Fab (Fab, V domains shown)
VH: B1 VH with A55Y, Y107A
VL: B1 VL with A31Y
notes: Single-mutant His-tagged Fab; also called Y107A
B11: h26D3 variant LC1 Fab (Fab, V domains shown)
VH: B1 VH with A55Y
VL: B1 VL
notes: Single-mutant His-tagged Fab; also called Y31A
B12: h26D3 variant HC10 Fab (Fab, V domains shown)
VH: B1 VH with A55Y, Y106A
VL: B1 VL with A31Y
notes: Single-mutant His-tagged Fab; also called Y106A
B13: h26D3 variant LC6 Fab (Fab, V domains shown)
VH: B1 VH with A55Y
VL: B1 VL with A31Y, Y100A
notes: Single-mutant His-tagged Fab; also called Y100A

Positions count from the first letter of the chain named. In names and notes the source's numbering stands.

The results in this text go back to patent US20250388664A1 (BIOARCTIC, published 2025).

For the first assay, the target named is T1, ectodomain of human TfR1 (His10-hTfR1; SEQ ID NO:110) (human, UniProt P02786 89-760).
T1 construct: also called ectodomain of hTfR1
In words: indirect ELISA: plate coated with 1 µg/ml hTfR1 ectodomain, Fab in 1:3 serial dilution, anti-human IgG F(ab')2-HRP. On the procedure:
For the indirect ELISA, half area 96-well plates (Corning, #3690) were coated with 1 μg/ml recombinant ectodomain of hTfR1 (SEQ ID NO:110) in PBS overnight at 4° C. The coated plates were blocked using Pierce protein-free blocking solution (Thermo Fisher Scientific, #37572) for 1 h at room temperature with shaking and washed four times in PBS containing 0.1% TWEEN-20. Serial dilutions (1:3) of various expressed constructs in incubation buffer (1% BSA, 0.1% TWEEN-20 in PBS) were incubated for 1 h at room temperature. […] Following four wash steps, K-Blue® Aqueous TMB substrate (Neogen, #331177) was added to the wells for 15 min at room temperature before the reaction was stopped with 1:1 dilution of 0.5 M H₂SO₄. The optical density at 450 nm was recorded (Spark, Tecan) and background signal was subtracted before analysis.
(ELISA stands for enzyme-linked immunosorbent assay.)
Take B1: the binding result was “binds”.

B2: the binding result is “binds”.

Consider B3, for which the binding result is given as “binds”.

Turning to B4, the binding result is recorded as “binds”.

With B5, the binding result was “binds”.

For the molecule B6, the binding result is “binds”.

As to B7, the binding result is recorded as “binds”.

As to B8, the binding result is listed as “binds”.

For the next assay, the target named is T2, truncated hTfR1 of SEQ ID NO:122 (human, UniProt P02786 122-760).
T2 construct: also called human TfR1; Human TfR1
T2 sequence (P02786 other isoform, or with tags, fused parts or gaps limits assumed): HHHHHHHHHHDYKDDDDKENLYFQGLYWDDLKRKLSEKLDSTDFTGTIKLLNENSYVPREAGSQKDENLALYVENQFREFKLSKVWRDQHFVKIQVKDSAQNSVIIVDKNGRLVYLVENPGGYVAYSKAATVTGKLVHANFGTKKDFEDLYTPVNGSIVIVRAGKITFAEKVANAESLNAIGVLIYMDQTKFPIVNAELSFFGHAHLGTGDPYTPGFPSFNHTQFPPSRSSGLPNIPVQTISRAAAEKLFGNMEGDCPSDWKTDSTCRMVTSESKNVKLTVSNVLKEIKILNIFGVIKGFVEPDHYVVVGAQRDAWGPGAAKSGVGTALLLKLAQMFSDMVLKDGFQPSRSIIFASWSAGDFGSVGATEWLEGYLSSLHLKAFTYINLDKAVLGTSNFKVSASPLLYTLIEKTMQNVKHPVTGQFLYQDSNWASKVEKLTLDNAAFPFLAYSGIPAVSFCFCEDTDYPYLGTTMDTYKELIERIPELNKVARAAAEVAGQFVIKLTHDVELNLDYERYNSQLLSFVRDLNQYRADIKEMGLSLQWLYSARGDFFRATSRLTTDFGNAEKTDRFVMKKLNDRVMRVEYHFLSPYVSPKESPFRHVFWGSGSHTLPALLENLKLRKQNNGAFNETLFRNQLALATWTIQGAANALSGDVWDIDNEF
In words: SPR, TfR1 amine-coupled, Fab injected, 1:1 fit. The procedure: (§1) Binding of the purified Fabs to human and cynomolgus TfR1 was evaluated using either SPR (FIG. 44) or indirect ELISA (FIG. 45). For SPR, a Biacore 8K instrument (Cytiva) was used. […] The Fabs were injected over the chip using a 2-fold dilution series in four steps starting at 100 nM. The interaction was measured using the single cycle kinetics method with a contact time of 120 s at a flow rate of 30 μl/min followed by a dissociation time of 1000 s. Regeneration of the surface between cycles was done by injecting 3M MgCl₂. The binding data was fitted to a 1:1 interaction model. The Fabs were diluted in HBS-EP+ (Cytiva, #BR100669). Experiments were performed at 25° C.
Broadly, the Kd is the equilibrium constant for the complex coming apart. Read a low Kd as tighter binding. As to B9, the Kd came out at 10 nM.

For B10, the dissociation constant Kd was 388 nM.

Take B11: the Kd was found to be 14 nM.

As to B12, binding was put at a Kd of 9.2 nM.

As for B13, the dissociation constant Kd turned out to be 8.5 nM. The Kd values of the last two molecules are within 1.5-fold of each other.

A further assay has as its target T3, truncated cTfR1 of SEQ ID NO:123 (cynomolgus monkey, UniProt Q5RDH6 122-760 (Pongo abelii entry)).
T3 construct: also called cynomolgus TfR1
T3 chain: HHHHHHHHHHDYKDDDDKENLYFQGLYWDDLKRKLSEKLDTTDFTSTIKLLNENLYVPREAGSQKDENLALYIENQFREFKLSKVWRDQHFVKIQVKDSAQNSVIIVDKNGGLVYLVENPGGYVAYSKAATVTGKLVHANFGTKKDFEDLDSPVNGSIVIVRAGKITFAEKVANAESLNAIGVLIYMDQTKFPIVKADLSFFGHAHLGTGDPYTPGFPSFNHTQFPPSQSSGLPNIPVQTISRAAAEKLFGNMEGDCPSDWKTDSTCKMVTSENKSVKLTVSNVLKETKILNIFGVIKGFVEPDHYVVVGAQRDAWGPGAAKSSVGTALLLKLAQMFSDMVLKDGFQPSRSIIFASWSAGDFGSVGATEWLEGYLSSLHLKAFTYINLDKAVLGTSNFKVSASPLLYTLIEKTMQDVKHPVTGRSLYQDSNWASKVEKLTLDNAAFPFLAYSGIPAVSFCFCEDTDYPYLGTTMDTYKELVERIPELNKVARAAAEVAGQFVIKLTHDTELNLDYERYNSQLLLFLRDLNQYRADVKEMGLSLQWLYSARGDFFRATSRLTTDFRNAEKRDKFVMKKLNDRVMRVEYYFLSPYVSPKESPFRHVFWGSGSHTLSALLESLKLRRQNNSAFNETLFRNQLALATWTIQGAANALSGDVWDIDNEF
In words: SPR, TfR1 amine-coupled, Fab injected, 1:1 fit. The procedure:
as §1
(In general: Surface plasmon resonance follows binding to a sensor surface in real time, without labels.)
B9: the Kd is 19 nM.

B10 yielded a Kd of 2.7 nM.

Consider B11, for which the Kd is 70 nM.

Regarding B12, the affinity, expressed as Kd, was 4.6 nM.

B13 returned a Kd of 9.4 nM. This Kd lies about 2-fold higher than the previous one.
